According to paper doi:10.1101/498196 (bioRxiv, 2018):
Numbering of substitutions follows the chain as printed. Names may count otherwise.

B1: PCDH1 EC1-7Fc (Fc fusion)
chain: TRVVYKVPEEQPPNTLIGSLAADYGFPDVGHLYKLEVGAPYLRVDGKTGDIFTTETSIDREGLRECQNQLPGDPCILEFEVSITDLVQNGSPRLLEGQIEVQDINDNTPNFASPVITLAIPENTNIGSLFPIPLASDRDAGPNGVASYELQAGPEAQELFGLQVAEDQEEKQPQLIVMGNLDRERWDSYDLTIKVQDGGSPPRASSALLRVTVLDTNDNAPKFERPSYEAELSENSPIGHSVIQVKANDSDQGANAEIEYTFHQAPEVVRRLLRLDRNTGLITVQGPVDREDLSTLRFSVLAKDRGTNPKSARAQVVVTVKDMNDNAPTIEIRGIGLVTHQDGMANISEDVAEETAVALVQVSDRDEGENAAVTCVVAGDVPFQLRQASETGSDSKKKYFLQTTTPLDYEKVKDYTIEIVAVDSGNPPLSSTNSLKVQVVDVNDNAPVFTQSVTEVAFPENNKPGEVIAEITASDADSGSNAELVYSLEPEPAAKGLFTISPETGEIQVKTSLDREQRESYELKVVAADRGSPSLQGTATVLVNVLDCNDNDPKFMLSGYNFSVMENMPALSPVGMVTVIDGDKGENAQVQLSVEQDNGDFVIQNGTGTILSSLSFDREQQSTYTFQLKAVDGGVPPRSAYVGVTINVLDENDNAPYITAPSNTSHKLLTPQTRLGETVSQVAAEDFDSGVNAELIYSIAGGNPYGLFQIGSHSGAITLEKEIERRHHGLHRLVVKVSDRGKPPRYGTALVHLYVNETLANRTLLETLLGHSLDTPLDIDIAGDPEYERSKQRGN
B2: PCDH1 EC1-5 C375S C548S (domain or fragment)
chain: TRVVYKVPEEQPPNTLIGSLAADYGFPDVGHLYKLEVGAPYLRVDGKTGDIFTTETSIDREGLRECQNQLPGDPCILEFEVSITDLVQNGSPRLLEGQIEVQDINDNTPNFASPVITLAIPENTNIGSLFPIPLASDRDAGPNGVASYELQAGPEAQELFGLQVAEDQEEKQPQLIVMGNLDRERWDSYDLTIKVQDGGSPPRASSALLRVTVLDTNDNAPKFERPSYEAELSENSPIGHSVIQVKANDSDQGANAEIEYTFHQAPEVVRRLLRLDRNTGLITVQGPVDREDLSTLRFSVLAKDRGTNPKSARAQVVVTVKDMNDNAPTIEIRGIGLVTHQDGMANISEDVAEETAVALVQVSDRDEGENAAVTSVVAGDVPFQLRQASETGSDSKKKYFLQTTTPLDYEKVKDYTIEIVAVDSGNPPLSSTNSLKVQVVDVNDNAPVFTQSVTEVAFPENNKPGEVIAEITASDADSGSNAELVYSLEPEPAAKGLFTISPETGEIQVKTSLDREQRESYELKVVAADRGSPSLQGTATVLVNVLDSNDND
B3: PCDH1 EC1-5 C375S C548S V115R (domain or fragment)
chain: B2 chain with V115R
B4: hs PCDH1 EC1-4bc (domain or fragment)
chain: TRVVYKVPEEQPPNTLIGSLAADYGFPDVGHLYKLEVGAPYLRVDGKTGDIFTTETSIDREGLRECQNQLPGDPCILEFEVSITDLVQNGSPRLLEGQIEVQDINDNTPNFASPVITLAIPENTNIGSLFPIPLASDRDAGPNGVASYELQAGPEAQELFGLQVAEDQEEKQPQLIVMGNLDRERWDSYDLTIKVQDGGSPPRASSALLRVTVLDTNDNAPKFERPSYEAELSENSPIGHSVIQVKANDSDQGANAEIEYTFHQAPEVVRRLLRLDRNTGLITVQGPVDREDLSTLRFSVLAKDRGTNPKSARAQVVVTVKDMNDNAPTIEIRGIGLVTHQDGMANISEDVAEETAVALVQVSDRDEGENAAVTCVVAGDVPFQLRQASETGSDSKKKYFLQTTTPLDYEKVKDYTIEIVAVDSGNPPLSSTNSLKVQVVDVNDNA
B5: hs PCDH1 EC1-4mc (domain or fragment)
chain: B4 chain
modifications: sugars observed at N248 (N-linked) and S430 (O-linked)
B6: PCDH1 EC1-4Fc (Fc fusion)
chain: B4 chain
B7: PCDH1 EC1-7Fc C375S C548S (Fc fusion)
chain: B1 chain with C375S, C548S
B8: PCDH1 EC1-7Fc V115R (Fc fusion)
chain: B1 chain with V115R
B9: PCDH1 EC1-4 C375S (domain or fragment)
chain: B4 chain with C375S

How the values were obtained:
bead aggregation assay = molecular target: the molecule itself; experiment: bead aggregation assay
AUC = molecular target: the molecule itself; experiment: AUC
crystal structure = molecular target: the molecule itself; experiment: crystal structure

| Protein | binding result (bead aggregation assay) | stoichiometry N (AUC) | further results |
| --- | --- | --- | --- |
| B1 | binds |  |  |
| B2 |  | 2 | Kd (AUC): < 5 µM |
| B3 |  | 2 |  |
| B4 |  |  | binding result (crystal structure): binds |
| B5 |  |  | binding result (crystal structure): binds |
| B6 | binds |  |  |
| B7 | binds |  |  |
| B8 | binds |  |  |
| B9 |  | 2 | Kd (AUC): < 5 µM |
